Laboratory results published in paper PMC5453957, “Bartnicki Filip 1”.

Columns and labels:
R6-GST [1] = biological target: T1, R6-GST (synthetic construct, UniProt P08515 =RRRRRR+1-218, internal_change); experiment: ITC; 25 C; n 2.61; Table 1 dG -35.8 kJ/mol would fit about 532 nM (R6/R8 possibly swapped); ITC: 50 mM phosphate pH 7.6, 207 mM NaCl, 25 C; pull-down: AS1 buffer (composition not given), 4 C, or ARGI buffer (50 mM Tris-HCl, 300 mM NaCl, 5 mM EDTA, 0.01% Tween 20, pH 7.5); details: protein: recombinant; tags: N-terminal R6 (CPP tag under study); chain copies: 2; label: 5'-biotin (pull-down); four mfold structures predicted
R6-GST [2] = biological target: T1, R6-GST; experiment: pull-down; AS1 buffer; ITC: 50 mM phosphate pH 7.6, 207 mM NaCl, 25 C; pull-down: AS1 buffer (composition not given), 4 C, or ARGI buffer (50 mM Tris-HCl, 300 mM NaCl, 5 mM EDTA, 0.01% Tween 20, pH 7.5); details: protein: recombinant; tags: N-terminal R6 (CPP tag under study); chain copies: 2; label: 5'-biotin (pull-down)
Tat49-57-PCNA = Tat49-57-PCNA (human, UniProt P12004 =MRKKRRQRRRGGGGGGHPW+1-261, internal_change); experiment: as above; details: protein: recombinant; tags: N-terminal Tat49-57; chain copies: 3; label: 5'-biotin (pull-down)
Chain of Tat49-57-PCNA (P12004 other isoform, or with tags, fused parts or gaps): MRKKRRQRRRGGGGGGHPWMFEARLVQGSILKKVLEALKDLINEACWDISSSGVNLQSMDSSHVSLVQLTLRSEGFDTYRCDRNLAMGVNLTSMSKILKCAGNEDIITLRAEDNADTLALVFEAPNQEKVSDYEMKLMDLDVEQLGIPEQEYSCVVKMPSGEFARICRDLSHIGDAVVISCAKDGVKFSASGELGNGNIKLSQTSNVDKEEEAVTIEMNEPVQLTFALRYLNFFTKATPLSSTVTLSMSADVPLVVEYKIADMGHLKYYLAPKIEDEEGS

R6-PCNA = R6-PCNA (human, UniProt P12004 =RRRRRR+1-261, internal_change); experiment: as above; details: protein: recombinant; tags: N-terminal R6; chain copies: 3; label: 5'-biotin (pull-down)
Chain of R6-PCNA (P12004 other isoform, or with tags, fused parts or gaps): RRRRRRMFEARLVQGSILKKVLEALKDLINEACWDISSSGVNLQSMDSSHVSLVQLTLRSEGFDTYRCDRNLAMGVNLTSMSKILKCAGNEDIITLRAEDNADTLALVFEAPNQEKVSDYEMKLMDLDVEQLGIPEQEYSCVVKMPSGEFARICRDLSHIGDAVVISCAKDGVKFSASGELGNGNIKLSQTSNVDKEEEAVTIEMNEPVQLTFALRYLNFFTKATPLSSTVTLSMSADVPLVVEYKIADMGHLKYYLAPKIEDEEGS

Binder | Kd (R6-GST [1]) [nM] | binding result (R6-GST [2]) | binding result (Tat49-57-PCNA) | binding result (R6-PCNA)
CTTTGTAATTGGTTCTGAGTTCCGTTGTGGGAGGAACATG (ssDNA) [AR aptamer (24-10 nt 31-70; 5'/-30 and 3'/-10)] | 943 ± 37 |  |  | 
24-10 aptamer full length (ssDNA) DNA: CATGCTTCCCCAGGGAGATGGACGGCACGTCTTTGTAATTGGTTCTGAGTTCCGTTGTGGGAGGAACATGCGTCGCAAAC |  | binds | binds | binds
reference aptamer (ssDNA) DNA: CATGCTTCCCCAGGGAGATGACTGACTGACTGACTGACTGACTGACTGACTGACTGACTGGAGGAACATGCGTCGCAAAC |  | no binding | no binding | no binding
